Data taken from patent US20140287029A1 (US Dept. of Health and Human Services, published 2014).

The binders below were run against T1, HLA-A2 molecules on T2 cells (human) (assay: T2 cell-binding assay, flow cytometry of HLA-A2 on T2 cells, peptide 25 µg/mL).
T1 construct: whole, on cells; MHC class I molecule on the surface of T2 cells
Text: The T2 binding values are expressed in mean fluorescence intensity. The values in parentheses are fold increases as compared with the negative control (CAP-7 peptide).

Binder | T2 Binding (mean fluorescence intensity) | fold increase compared with the negative control (CAP-7 peptide)
GLFDEYLEMV (Synthetic peptide, purity >95%; positions counted on the NGEP long form (L); also called NGEP-P703) [NGEP peptide P703 (L)] | 565 MFI | 6.4 fold
ILFEILAKT (Synthetic peptide, purity >95%; positions counted on the NGEP long form (L)) [NGEP peptide P258 (L)] | 280 MFI | 3.1 fold
GLGGPPLPTL (Synthetic peptide, purity >95%; positions counted on the NGEP short form (S)) [NGEP peptide P10 (S)] | 212 MFI | 2.4 fold
IVFEHVVFSV (Synthetic peptide, purity >95%; positions counted on the NGEP long form (L)) [NGEP peptide P855 (L)] | 203 MFI | 2.3 fold
FLDNIRAAGL (Synthetic peptide, purity >95%; also called P143 (5)) [NGEP peptide P143] | 203 MFI | 2.3 fold
ALLSASWAV (Synthetic peptide, purity >95%; positions counted on the NGEP long form (L)) [NGEP peptide P170 (L)] | 185 MFI | 2.1 fold
LLAIRLWAV (Synthetic peptide, purity >95%; positions counted on the NGEP long form (L)) [NGEP peptide P846 (L)] | 126 MFI | 1.4 fold
SLSYTNPAV (Synthetic control peptide, purity >95%; also called positive control peptide) [MUC-1 (P1240) peptide] | 452 MFI | 5.1 fold
VLLEVVPDV (Synthetic peptide, purity >95%; positions counted on the NGEP long form (L)) [NGEP peptide P215 (L)] | 464 MFI | 5.2 fold
LVWEEDLKL (Synthetic peptide, purity >95%; positions counted on the NGEP short form (S)) [NGEP peptide P113 (S)] | 367 MFI | 4.1 fold
WLLPAAVVGT (Synthetic peptide, purity >95%; positions counted on the NGEP long form (L)) [NGEP peptide P356 (L)] | 354 MFI | 4 fold
